Measured values taken from patent publication US20170099813.

How the values were obtained:
Assay in all cases: cell_activity
[1] = tested on: ssSRY1.2 TALEN left monomer (artificial); conditions: pair with p4; Surveyor day 3, swine fibroblasts
[2] = tested on: ssSRY1.3 TALEN right monomer (artificial); conditions: pair with p5; Surveyor day 3, swine fibroblasts
[3] = tested on: ssSRY1.1 TALEN left monomer (artificial); conditions: pair with p2; Surveyor day 3, swine fibroblasts; 46.3% HDR with ssODN
[4] = tested on: ssSRY1.1 TALEN right monomer (artificial); conditions: pair with p1; Surveyor day 3, swine fibroblasts; 46.3% HDR with ssODN
[5] = tested on: ssSRY1.3 TALEN left monomer (artificial); conditions: pair with p6; Surveyor day 3, swine fibroblasts
[6] = tested on: ssSRY1.2 TALEN right monomer (artificial); conditions: pair with p3; Surveyor day 3, swine fibroblasts

Sequence: AGAGAACCCTCAAATG (double strand) [ssSRY1.2 left half-site]
- activity [1]: 35 % NHEJ

Sequence: TTACAGAAGCCGAAA (double strand) [ssSRY1.3 right half-site]
- activity [2]: 16.2 % NHEJ

Sequence: GAACGCTTTCATTGTG (double strand) [ssSRY1.1 left half-site]
- activity [3]: 30 % NHEJ

Sequence: GGAGAAAAGTGGCTCT (double strand) [ssSRY1.1 right half-site]
- activity [4]: 30 % NHEJ

Sequence: CAGCAAGTGGCTGGGA (double strand) [ssSRY1.3 left half-site]
- activity [5]: 16.2 % NHEJ

Sequence: GCAAGTGGCTGGGATGC (double strand) [ssSRY1.2 right half-site]
- activity [6]: 35 % NHEJ
